The chains are these.
B1: LINE1-full (parent)
chain: UACGUAGGUGGUUUUCCCCUGAUAGUGCUAAGGGGGCCUGGAAGUUUGGACUGGGCAGAGCUCAACACAGCGUGGCAAAGUGGCUGUGGCUAGACUGCCUCUCUGGAUUCCUCGUCACUCAGCAGGGCAUCUCUGAGAGAAAUGCC

The variants in this data set derive from B1. The data set can be described thus: self-cleavage, relative activity (ratio to wild type); higher = more cleavage; in vitro, sequencing; the parent is a self-cleaving ribozyme.
Regarding U81C A107G, the self-cleavage is 1.21. In the case of G82U U143C it was 1.72; in that of G80A A121G, 2.16; in that of U81C C128U, 1.19. In the case of G82U U102C it was 1.45. Then A79U U100G, with 1.24; and A79U U100C, with 2.92; and A79U A94U, with 0.25. Regarding A79U A94G, the self-cleavage came to 0.26. On to A79G U91C, for which the self-cleavage was 0.45.

For the variant U85C A129U, the self-cleavage amounted to 0.19. On to U85C A129G, for which the self-cleavage amounted to 0.16.

On to G82A A107G, for which the self-cleavage came to 1.73.

On to U81A U109C, for which the self-cleavage amounted to 1.98. U81A U91C: the self-cleavage was 0.77. Then G82A U119A, with 1.96. Then G80U U100C, with 1.02. For G80A A140U, the self-cleavage was 1.58. In the case of U81A G83U it was 1.3; in that of U85A A107U, 0.08. Then A79G G139U, with 1.19; and U85C C113A, with 0.08. As for U85C C113U, the self-cleavage came out at 0.1. Then A79U U102C, with 1.04; and G82C U119A, with 2.14. In the case of C84U U87C it was 0.04; in that of C84U G89A, 0.04; in that of A79U U85A, 0.07.

As for G83U A117U, the self-cleavage was found to be 1.21. For the variant U81C U115A, the self-cleavage was determined as 1.44. Then U81C U115C, with 1.39; and U81C U115G, with 1.1. Then U85A U87G, with 0.07; and U85A U87A, with 0.07; and A79G C146U, with 1.3. In the case of G82A G86U, the self-cleavage was found to be 0.1. Regarding A79G A141G, the self-cleavage came to 1.35. In the case of U81A U85A it was 0.09. In the case of G82A U96A it was 0.05; in that of U81C G122U, 1.14.

As to G83A U119A, the self-cleavage came to 0.85. As for G83A U119C, the self-cleavage worked out at 1.51.

As for U85C A141G, the self-cleavage was determined as 0.16. Then U81A C133U, with 1.95; and A79G U81G, with 0.43; and U85C C90A, with 0.07. In the case of U81A C145A it was 2.25. Then A79U U81C, with 0.4. As to G83A A121G, the self-cleavage turned out to be 0.98. Then U81C C95A, with 0.03; and C84G, with 0.09; and C84A, with 0.1. In the case of C84U it was 0.14; in that of G83C A94G, 0.17; in that of A79G U130C, 1.45. Then A79G U130G, with 2.51; and U85C A124G, with 0.13; and U85C A124U, with 0.21. Regarding U85A U96G, the self-cleavage was found to be 0.15. Then G83A A136G, with 1.05; and G82A U132C, with 2.22. Then G82A G126U, with 2.04; and U81G A129G, with 1.48; and U81C G127U, with 1.22. As to A79U A124U, the self-cleavage was determined as 0.67. Turning to A79U A124G, the self-cleavage came to 0.87. In the case of U81A U100A it was 2.09; in that of C84U A121G, 0.2.

In the case of A79G G144A, the self-cleavage worked out at 1.5.

Turning to G80U U102A, the self-cleavage was 1.34.

As to U81C A140G, the self-cleavage was 1.07. In the case of A79U A136G it was 1.96; in that of A79U A136U, 2.6. Then C84U U134C, with 0.19; and U85C G97U, with 0.02; and U85C G86U, with 0.07.

In the case of A79G C90A, the self-cleavage is 0.04. In the case of U81A C120A it was 2.51; in that of U81A C120U, 0.99. For the variant G82A A138G, the self-cleavage turned out to be 2.26. Turning to G82A A138U, the self-cleavage is 1.9. Then U81C C133A, with 0.9; and G82U U134G, with 1.3; and U81G U87A, with 0.15.

Take A79U U112A: the self-cleavage is 1.97. G82A U130A: the self-cleavage turned out to be 1.97. In the case of U81C U87C it was 0.4. In the case of C84A A141G it was 0.09; in that of G82A U102A, 2.12.

Take U85A U109G: the self-cleavage was 0.05. With U81C U108C, the self-cleavage turned out to be 1.95. Then U85A G127A, with 0.06; and A79G A138U, with 0.85; and A79G A138G, with 1.22. Then U81A A138C, with 2.3; and U81A A138G, with 2.16; and G80A U104A, with 1.86.

As to G83U U85A, the self-cleavage turned out to be 0.07. In the case of G80A G144A it was 1.66. In the case of A79G G97A it was 0.08; in that of U81C A117G, 1.21; in that of U81A A117U, 1.94. In the case of U81A A117G it was 2.29. For A79U A142G, the self-cleavage came to 2.33. Then U81A A129U, with 2.57; and U85A A142C, with 0.14. Then C84U A124G, with 0.11; and G83A U143C, with 0.71.

For the variant U81A A136U, the self-cleavage turned out to be 2.35. Then U81A A136G, with 1.9.

As to G80A A107G, the self-cleavage worked out at 2.12. In the case of A79G G86A it was 0.09; in that of A79G A136U, 0.91.

For U81G A136G, the self-cleavage is 1.65. Turning to G80A U91A, the self-cleavage turned out to be 0.76. In the case of G80C U108C, the self-cleavage amounted to 0.

On to G83A U91C, for which the self-cleavage turned out to be 0.24.

For C84A C145U, the self-cleavage was found to be 0.08.

For the variant U81A A124C, the self-cleavage was 2.45. As to U81A A124G, the self-cleavage is 1.55. Regarding U81C U85A, the self-cleavage amounted to 0.16. Then C84G A129G, with 0.2; and C84G A94U, with 0.13. With U85C C101A, the self-cleavage amounted to 0.12. Consider U81A U132A, for which the self-cleavage was determined as 1.7.

Consider U81A U132C, for which the self-cleavage was 2.25. In the case of A79U U119C it was 2.41; in that of C84G C146A, 0.1. Then A79G U134A, with 1.07; and U81A U134A, with 2.49; and U81A U134G, with 0.65.

Consider U85C C99U, for which the self-cleavage is 0.07. In the case of U85A G125A it was 0.04. Then U81A U112A, with 1.7.

As for G80U A141G, the self-cleavage was 1.1.

For the variant G80U A141U, the self-cleavage was 1.68. Then U81C A129U, with 1.48. Then A79G C128U, with 0.92; and A79U G137A, with 1.87. Then G83A U112C, with 0.54; and G83U A142G, with 0.44.

Turning to A79U A129G, the self-cleavage turned out to be 2.13. Then U81A A141G, with 1.85.

Turning to A79G U119A, the self-cleavage was found to be 1.06. In the case of U85C A121U it was 0.25; in that of U85C A121G, 0.25; in that of U81C A92U, 0.95. In the case of U81C A92G it was 0. Then G82U A141G, with 1.54.

With U85C A107G, the self-cleavage is 0.15. With C84U U132C, the self-cleavage stood at 0.14. In the case of G80U, the self-cleavage was 1.36. Then G80A, with 1.93.

In the case of G80C, the self-cleavage worked out at 1.4. Then A79G C98U, with 0.45; and A79G C98A, with 0.2; and C84A U130C, with 0.15. In the case of G82A C84U it was 0.51; in that of G80C U96G, 0.09; in that of U85C A140G, 0.15. In the case of A79G C113U it was 0.75; in that of G82A U143C, 2.03; in that of U85A A136U, 0.19.

Regarding U81C A121G, the self-cleavage is 1.38. Then A79G U115C, with 1.32; and A79U A121G, with 1.58. Then A79G C95U, with 0.08.

(Values after the RNAGym collection of RNA variant scans (doi:10.7554/elife.90254).)
